Results on one substance are retold here after patent US9926369B2, “Methods for treating hepatocellular cancer by administering an anti-Ang-2 antibody” (Regeneron Pharmaceuticals, Inc., priority 2009, dated 2018).

In test [1] the target is T1, hAng-1 WT binding to Tie-2 (Homo sapiens, UniProt Q15389).
T1 construct: Full-length human Ang-2 or Ang-1 protein conjugated to 6× histidine tag (R&D Systems, Minneapolis, Minn.); purchased R&D Systems
T1 sequence (Q15389 20-498 limits assumed): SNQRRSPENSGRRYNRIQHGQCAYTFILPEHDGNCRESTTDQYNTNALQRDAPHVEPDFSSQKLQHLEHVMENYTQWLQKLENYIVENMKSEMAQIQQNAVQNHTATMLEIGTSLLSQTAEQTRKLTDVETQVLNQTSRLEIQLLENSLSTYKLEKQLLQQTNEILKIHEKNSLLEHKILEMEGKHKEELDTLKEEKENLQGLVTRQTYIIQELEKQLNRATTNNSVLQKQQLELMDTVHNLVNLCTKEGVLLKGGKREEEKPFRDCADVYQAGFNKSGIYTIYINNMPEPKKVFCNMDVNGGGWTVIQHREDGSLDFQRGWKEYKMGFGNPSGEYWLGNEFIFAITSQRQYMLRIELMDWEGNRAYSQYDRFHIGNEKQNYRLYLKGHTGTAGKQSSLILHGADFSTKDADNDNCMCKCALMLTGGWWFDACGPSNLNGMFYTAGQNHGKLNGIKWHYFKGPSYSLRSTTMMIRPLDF
The experiment in a line: ELISA blocking of full-length hAng-1 WT binding to hTie-2-mFc. The conditions noted are these: 0.6 nM hAng-1-His. The class given is biochemical. How it is done:
The ELISA experiments shown in this Example were conducted in a similar manner to the experiments of Example 5. Briefly, hTie-2-mFc (a chimeric construct consisting of human Tie-2 conjugated to mouse IgG; SEQ ID NO:525) was coated onto 96-well plates at a concentration of 2 μg/ml and incubated overnight followed by washing four times in wash buffer (PBS with 0.05% Tween-20). The plate was then blocked with PBS (Irvine Scientific, Santa Ana, Calif.) containing 0.5% BSA (Sigma-Aldrich Corp., St. Louis, Mo.) for one hour at room temperature. In a separate plate, purified anti-Ang-2 antibodies and control constructs, at a starting concentration of 300 nM, were serially diluted by a factor of three across the plate. Full-length human Ang-2 or Ang-1 protein conjugated to 6× histidine tag (R&D Systems, Minneapolis, Minn.) were added to a final concentration of 0.6 nM and incubated for one hour at room temperature. The antibody/antigen mixture was then added to the plate containing hTie-2-mFc and incubated for one hour at room temperature. Detection of Ang-2-His or Ang-1-His bound to hTie-2-mFc protein was determined with Horse-Radish Peroxidase (HRP) conjugated to a-Penta-His antibody (Qiagen, Valencia, Calif.) and developed by standard colorimetric response using tetramethylbenzidine (TMB) substrate (BD Biosciences, San Jose, Calif.). Absorbance was read at OD450 for 0.1 sec. […]
(In an ELISA, binding on a coated surface is turned into a signal by an enzyme label.)

Test [2] relates to Ang-1-mediated Tie-2 phosphorylation in EA.hy926 cells. Description: Inhibition of Ang-1-mediated Tie-2 phosphorylation in EA.hy926 cells. Format: cell-based, human. To be noted: up to 400 nM. Here is the method:
EA.hy926 cells (Edgell et al., Proc. Natl. Acad. Sci. USA 80:3734-3737 (1983)) were plated at 5×10^6 cells per 10 cm dish in 10 ml DMEM with 10% FBS, HAT, L-glutamine and penicillin/streptomycin. After 24 hours, cells were serum-starved for 1 hour in 10 ml DMEM+1 mg/ml BSA. Cells were then stimulated for 10 minutes with 500 ng/ml of recombinant human Ang-1 (R&D Systems) in the presence of either an irrelevant isotype control antibody (“9E10”) at 400 nM or the anti-Ang-2 antibody H1H685P, or control agents (Control I, Control II, Control IV, or Control V) at concentrations ranging from 10 to 400 nM.
Following incubation, cells were lysed and Tie-2 was immunoprecipitated as described by Daly et al., Proc. Natl. Acad. Sci. USA 103:15491-15496 (2006). Immune complexes were collected by incubation with protein A/G beads (Santa Cruz Biotechnology, Santa Cruz, Calif.) for 60 min. Beads were washed with cold lysis buffer and bound proteins were eluted by heating in SDS sample buffer. Samples were then subjected to Western blot analysis with monoclonal antibodies against Tie-2 or phosphotyrosine (clone 4G10, Millipore, Billerica, Mass.).
Signals were detected using HRP-conjugated secondary antibodies and ECL reagents (GE Healthcare, Piscataway, N.J.). X-ray films were scanned and the phospho-Tie-2 and Tie-2 signals were quantified using ImageJ software. […]

pIC50: −log10 of the molar value.

One may read the pIC50 as −log10 of the IC50, conventionally taken in molar units. Low values mean a large IC50, high ones a small IC50. In test [1], “H1H685P: human anti-Ang-2 antibody, HCVR/LCVR SEQ ID NOs 18/20; also referred to as mAb1 [Antibody H1H685P]” gave a negative logarithm of the IC50 (pIC50) of under 6.52. Moreover, in test [2], the “Inhibitory effect on Ang-1-induced Tie-2 phosphorylation (in words)” value is “no significant inhibitory effect”.
